Where two headings read alike, the source gives them in different places. Non-standard residues stand in square brackets, D forms with d. Nle = CCCC[C@H](N)C(=O)O
Legend:
Assay type in all cases: binding
human IgG1 = target: T1, human IgG1 (Homo sapiens, UniProt P01857)
T1 construct: all human subtypes derived from myeloma patients; purchased Calbiochem 400120; host or cells: myeloma patients
Experimental: (§1) In addition, the following targets, all unfractionated IgGs, were also evaluated with selected immobilized peptides for species specificity characterization in a similar format: human IgG, goat IgG, bovine IgG, and mouse IgG (Sigma, product nos. I4506, I5256, I5506, and I15381, respectively). In addition, 10 μl aliquots of hydrolyzed NHS-activated Sepharose 4 Fast Flow (Amersham Pharmacia Biotech, product no. 17-0906-01) and immobilized recombinant Protein A (RepliGen Corp., product no. IPA-400) were also assayed as negative and positive controls. IgG targets were diluted into 10 mM phosphate buffer containing 150 mM NaCl and 0.01% Tween 20, pH 7.2 (PBST) or 50 mM Tris buffer containing, 150 mM NaCl and 0.01% Tween-20, pH 7.5 (TBST). Batch (static) binding and elution studies were conducted in a 96-well assay filterplate (Millipore MultiScreen-HV, with 0.45 μm Durapore membrane, product no. MAHVN4510). The target was allowed to incubate with the resin for 1-1.5 hours with shaking at room temperature. Unbound target was collected by centrifugation of samples from the assay plate directly into a low-UV absorbing 96-well collection plate (Costar, product no. 3635 or Greiner, product no. 655801). The unbound target was then quantitated by reading the absorbance at 280 nm (normalized to 1 cm pathlength, 1.4 mg/ml A280 extinction coefficient) of the collection plate on a microplate spectrophotometer (Molecular Devices Corp., SPECTRAmax PLUS) against a buffer blank.
(§2) The percentage bound target was determined by subtracting the mass determined as unbound from the corresponding condition's control values (control non-filtered added directly to the collection plate and/or the negative control). The assay plate was washed (3×) with 200 μl of binding buffer by vacuum filtration followed by addition of 100 μl of various elution conditions (e.g.: 0.1 M sodium bicarbonate buffer, pH 8.5 and/or 0.1 M sodium citrate buffer, pH 4.0). After a 30-60 minute incubation with shaking at room temperature, the eluted target was collected by centrifugation of the assay plate into another collection plate and quantitated in a similar manner. Percent elution of total load was then determined to characterize elution recovery efficiency under various conditions. The assay plate was then washed (3×) with 200 μl of binding buffer by vacuum filtration followed by addition of a resin cleaning condition (e.g., 0.1M CAPS buffer (3-[Cyclohexylamino]-1-propane-sulfonic acid), pH 11.5, to regenerate the resin for re-use. Percentage mass balance determination was calculated to be 90-100% on average.

human IgG2 = target: T2, human IgG2 (Homo sapiens, UniProt P01859)
T2 construct: all human subtypes derived from myeloma patients; purchased Calbiochem 400122; host or cells: myeloma patients
Experimental: as §1, §2

human IgG = tested on: human IgG
Experimental: as §1, §2

IgG3 = IgG3 (Homo sapiens, UniProt P01860); design: all human subtypes derived from myeloma patients; purchased Calbiochem 400124; host or cells: myeloma patients
Experimental: as §1, §2

IgG4 = IgG4 (Homo sapiens, UniProt P01861); design: all human subtypes derived from myeloma patients; purchased Calbiochem 400126; host or cells: myeloma patients
Experimental: as §1, §2

[1] = peptide immobilized on NHS activated sepharose 4 fast flow, target ligand density 2.0 μmole/ml, batch filterplate, hIgG1
[2] = peptide immobilized on NHS activated sepharose 4 fast flow, target ligand density 2.0 μmole/ml, batch filterplate, hIgG2
[3] = peptide immobilized on NHS activated sepharose 4 fast flow, target ligand density 2.0 μmole/ml, batch filterplate, hIgG
[4] = peptide immobilized on NHS activated sepharose 4 fast flow, target ligand density 2.0 μmole/ml, batch filterplate, hIgG3
[5] = peptide immobilized on NHS activated sepharose 4 fast flow, target ligand density 2.0 μmole/ml, batch filterplate, hIgG4
[6] = Table 20, average ligand density 1.9 μmole/ml

Sequence of IgG3 (P01860 1-377 isoform P01860-1): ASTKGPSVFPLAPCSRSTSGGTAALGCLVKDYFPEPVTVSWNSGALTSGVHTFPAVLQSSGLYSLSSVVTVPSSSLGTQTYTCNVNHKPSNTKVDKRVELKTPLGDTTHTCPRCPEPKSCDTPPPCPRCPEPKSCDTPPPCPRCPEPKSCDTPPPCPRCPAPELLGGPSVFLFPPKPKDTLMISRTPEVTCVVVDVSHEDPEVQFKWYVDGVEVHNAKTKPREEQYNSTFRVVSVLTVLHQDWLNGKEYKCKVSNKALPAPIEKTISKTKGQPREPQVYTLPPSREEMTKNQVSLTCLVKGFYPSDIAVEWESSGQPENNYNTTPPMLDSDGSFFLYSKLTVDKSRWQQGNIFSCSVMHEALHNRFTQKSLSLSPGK
T2 sequence (P01859 1-326 isoform P01859-1): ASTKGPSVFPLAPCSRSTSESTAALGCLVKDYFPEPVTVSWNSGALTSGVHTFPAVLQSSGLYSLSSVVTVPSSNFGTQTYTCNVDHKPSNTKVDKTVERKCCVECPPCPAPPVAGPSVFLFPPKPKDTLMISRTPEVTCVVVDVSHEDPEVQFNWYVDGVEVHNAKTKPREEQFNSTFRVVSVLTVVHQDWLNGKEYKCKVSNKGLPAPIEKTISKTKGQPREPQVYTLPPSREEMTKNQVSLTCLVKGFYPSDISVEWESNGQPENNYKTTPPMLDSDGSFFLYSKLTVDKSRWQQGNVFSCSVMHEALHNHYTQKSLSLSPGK
T1 sequence (P01857 1-330 isoform P01857-1): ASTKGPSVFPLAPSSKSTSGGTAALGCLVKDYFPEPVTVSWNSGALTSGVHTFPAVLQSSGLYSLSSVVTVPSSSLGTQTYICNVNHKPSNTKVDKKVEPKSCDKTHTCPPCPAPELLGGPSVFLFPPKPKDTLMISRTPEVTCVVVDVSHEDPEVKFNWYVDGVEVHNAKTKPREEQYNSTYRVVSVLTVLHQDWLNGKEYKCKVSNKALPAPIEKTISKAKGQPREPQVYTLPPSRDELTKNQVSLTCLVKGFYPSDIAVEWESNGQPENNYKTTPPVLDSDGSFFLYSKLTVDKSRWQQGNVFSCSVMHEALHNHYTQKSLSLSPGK
Sequence of IgG4 (P01861 1-327 isoform P01861-1): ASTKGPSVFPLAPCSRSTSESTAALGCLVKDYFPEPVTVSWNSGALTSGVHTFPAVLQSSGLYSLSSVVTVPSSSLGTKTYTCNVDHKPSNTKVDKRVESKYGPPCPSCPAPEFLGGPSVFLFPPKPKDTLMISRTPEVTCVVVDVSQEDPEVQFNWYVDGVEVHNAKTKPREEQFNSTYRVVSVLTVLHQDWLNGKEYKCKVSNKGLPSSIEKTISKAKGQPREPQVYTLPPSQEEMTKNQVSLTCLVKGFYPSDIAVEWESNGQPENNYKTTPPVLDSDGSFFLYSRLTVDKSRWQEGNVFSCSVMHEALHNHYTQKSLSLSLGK

| Batch Binding (% Capture of Total Load) hIgG1 (human IgG1; [1]) [%] | Batch Binding (% Capture of Total Load) hIgG2 (human IgG2; [2]) [%] | Batch Binding (% Capture of Total Load) hIgG (human IgG; [3]) [%] | Batch Binding (% Capture of Total Load) hIgG3 (IgG3; [4]) [%] | Batch Binding (% Capture of Total Load) hIgG4 (IgG4; [5]) [%] | Batch Binding (% Capture of Total Load) hIgG1 (human IgG1; [6]) [%] | Batch Binding (% Capture of Total Load) hIgG2 (human IgG2; [6]) [%] | Batch Binding (% Capture of Total Load) hIgG (human IgG; [6]) [%] | Batch Binding (% Capture of Total Load) hIgG3 (IgG3; [6]) [%] | Batch Binding (% Capture of Total Load) hIgG4 (IgG4; [6]) [%] | Substance | further results |
| --- | --- | --- | --- | --- | --- | --- | --- | --- | --- | --- | --- |
| 66 | 55 | 57 | 0 | 39 |  |  |  |  |  | Ac-ACSRDWSGALVWCAGHEPGPEGGGK-NH2 (not fully specified (bridges); printed as Ac-ACSRDWSGALVWCAGHEPGPEGGGK-NH2; cysteine pairing not given here) [DX1142] |  |
|  |  |  |  |  | 70 | 63 | 73 | 0 | 39 | Ac-ACVYTTWGELIWCDNHEPGPEGGGK-NH2 (not fully specified (bridges); printed as Ac-ACVYTTWGELIWCDNHEPGPEGGGK-NH2; cysteine pairing not given here) [DX1064] |  |
|  |  |  |  |  | 77 | 68 | 74 | 2 | 51 | Ac-CVYTTWGELIWCDNHEPGPEGGGK-NH2 (not fully specified (bridges); printed as Ac-CVYTTWGELIWCDNHEPGPEGGGK-NH2; cysteine pairing not given here) [DX1069] | Binding properties / profile relative to parent peptide (human IgG; batch filterplate, human IgG and subtypes): almost identical to those of DX249 |
|  |  |  |  |  | 73 | 63 | 73 | 0 | 49 | Ac-DHMCVYTTWGELIWCDNHEPGPEGGGK-NH2 (not fully specified (bridges); printed as Ac-DHMCVYTTWGELIWCDNHEPGPEGGGK-NH2; cysteine pairing not given here) [DX1062] |  |
| 88 | 84 | 81 | 0 | 61 |  |  |  |  |  | Ac-ECSRDWSGALVWCAGHEPGPEGGGK-NH2 (not fully specified (bridges); printed as Ac-ECSRDWSGALVWCAGHEPGPEGGGK-NH2; cysteine pairing not given here) [DX1144] |  |
|  |  |  |  |  | 73 | 63 | 71 | 0 | 45 | Ac-EHMCVYTTWGELIWCDNHEPGPEGGGK-NH2 (not fully specified (bridges); printed as Ac-EHMCVYTTWGELIWCDNHEPGPEGGGK-NH2; cysteine pairing not given here) [DX1063] |  |
| 17 | 9 | 21 | 0 | 2 |  |  |  |  |  | Ac-ERACSRDWSGALVWCAGHEPGPEGGGK-NH2 (not fully specified (bridges); printed as Ac-ERACSRDWSGALVWCAGHEPGPEGGGK-NH2; cysteine pairing not given here) [DX1141] |  |
|  |  |  |  |  |  |  |  |  |  | Ac-GDWGECTVTSYGELIWCGGLEPGPEGGGK-NH2 (not fully specified (bridges); printed as Ac-GDWGECTVTSYGELIWCGGLEPGPEGGGK-NH2; cysteine pairing not given here) [DX1070] | hIgG1 elution pH 3.0 (% of Total Load) (human IgG1; Table 13): 22%; hIgG2 elution pH 3.0 (% of Total Load) (human IgG2; Table 13): 42%; % IgG Capture - Batch Binding, Human IgG (human IgG; Table 14, average ligand density 1.8 μM/ml): 91%; hIgG4 elution pH 3.0 (% of Total Load) (IgG4; Table 13): 14% |
| 88 | 83 | 81 | 0 | 55 |  |  |  |  |  | Ac-TCSRDWSGALVWCAGHEPGPEGGGK-NH2 (not fully specified (bridges); printed as Ac-TCSRDWSGALVWCAGHEPGPEGGGK-NH2; cysteine pairing not given here) [DX1143] |  |
| 74 | 63 | 66 | 0 | 42 |  |  |  |  |  | Ac-VCSRDWSGALVWCAGHEPGPEGGGK-NH2 (not fully specified (bridges); printed as Ac-VCSRDWSGALVWCAGHEPGPEGGGK-NH2; cysteine pairing not given here) [DX1145] |  |
|  |  |  |  |  | 33 | 28 | 44 | 0 | 25 | Ac-VCVYTTWGELIWCDNHEPGPEGGGK-NH2 (not fully specified (bridges); printed as Ac-VCVYTTWGELIWCDNHEPGPEGGGK-NH2; cysteine pairing not given here) [DX1067] |  |
|  |  |  |  |  | 33 | 25 | 36 | 0 | 21 | Ac-[Nle]CVYTTWGELIWCDNHEPGPEGGGK-NH2 (not fully specified (bridges); printed as Ac-[Nle]CVYTTWGELIWCDNHEPGPEGGGK-NH2; cysteine pairing not given here) [DX1068] |  |

Reference: patent US20030199671A1, “Binding molecules for Fc-region polypeptides” (priority 2001, published 2003)
